B1: 3.1.1 (antibody, V domains shown)
VH: GVVQPGRSLRLSCAASGFTFSSYGMHWVRQAPGKGLEWVAVIWYDGSNKYYADSVKGRFTISRDNSKNTLYLQMNSLRAEDTAVYYCARGARIITPCMDVWGQGTTVTVSS
VL: QSPSSLSASVGDRVTITCRASQSINTYLIWYQQKPGKAPNFLISATSILQSGVPSRFRGSGSGTNFTLTINSLHPEDFATYYCQQSYSTPFTFGPGTKVDIKR
notes: also called CT-3.1.1
B2: 2.1.3 (antibody, human IgG4, V domains shown)
VH: SGPGLVKPSQILSLTCTVSGGSISSGGHYWSWIRQHPGKGLEWIGYIYYIGNTYYNPSLKSRVTISVDTSKNQFSLKLSSVTAADTAVYYCARDSGDYYGIDVWGQGTTVTVSS
VL: SPDFQSVTPKEKVTITCRASQSIGSSLHWYQQKPDQSPKLLIKYASQSFSGVPSRFSGSGSGTDFTLTINSLEAEDAATYYCHQSSSLPLTFGGGTKVEIKR
B3: 4.10.2 (antibody, human IgG2, V domains shown)
VH: GVVQPGRSLRLSCVASGFIFSSHGIHWVRQAPGKGLEWVAVIWYDGRNKDYADSVKGRFTISRDNSKNTLYLQMNSLRAEDTAVYYCARVAPLGPLDYWGQGTLVTVSS
VL: SPGTLSLSPGERATLSCRASQSISSNFLAWYQQKPGQAPRLLIYRPSSRATGIPDSFSGSGSGTDFTLTISRLEPEDFALYYCQQYGTSPFTFGPGTKVDIKR
notes: Fully human IgG2 kappa (hybridoma); also called CT-4.10.2

Experiments:
[1] = target: T1, CTLA-4-IgG1 fusion protein (human); test: BIAcore; CTLA-4-Ig on chip, 397.8 RU
T1 construct: Mature extracellular domain of human CTLA-4 fused to human IgG1 constant domains, no hinge, covalent dimer through cysteine 120; The oncostatin M signal peptide is cleaved; also called OM-CTLA4-IgG1 Fusion Protein; CTLA-4-Ig fusion protein

[2] = target: T1, CTLA-4-IgG1 fusion protein; test: BIAcore; CTLA-4-Ig on chip, 457.2 RU
[3] = target: T1, CTLA-4-IgG1 fusion protein; test: BIAcore; CTLA-4-Ig on chip, 504.5 RU
[4] = target: T1, CTLA-4-IgG1 fusion protein; test: BIAcore; CTLA-4-Ig on chip, 878.7 RU
[5] = target: T2, CTLA-4-Ig(G4) (UniProt P16410 37-161, limits assumed); test: competition ELISA: CTLA-4-Ig(G4) to coated B7.1-Ig(G1); n = 2
T2 construct: Bought (Repligen, Inc.); not shown: IgG4 portion of the bought fusion protein

[6] = target: T2, CTLA-4-Ig(G4); test: competition ELISA: CTLA-4-Ig(G4) to coated B7.2-Ig(G1); n = 3
[7] = target: T1, CTLA-4-IgG1 fusion protein; test: selectivity ELISA, antibody 1 µg/ml; CTLA-4/Ig over B7.2/Ig; n = 3
[8] = target: T1, CTLA-4-IgG1 fusion protein; test: selectivity ELISA, antibody 1 µg/ml; CTLA-4/Ig over CD28/Ig; n = 3
[9] = target: T1, CTLA-4-IgG1 fusion protein; test: selectivity ELISA, antibody 1 µg/ml; CTLA-4/Ig over CD44/Ig; n = 3
[10] = target: T3, CTLA-4-Ig(G1) (UniProt P16410 37-161, limits assumed); test: IGEN ECL bead assay, antibody 1 µg/ml; CTLA-4-Ig(G1) over CD28-Ig(G1); n = 2
T3 construct: also called CTLA4 (IGEN assay); not shown: IgG1 portion
T3 sequence (P16410 37-161 limits assumed): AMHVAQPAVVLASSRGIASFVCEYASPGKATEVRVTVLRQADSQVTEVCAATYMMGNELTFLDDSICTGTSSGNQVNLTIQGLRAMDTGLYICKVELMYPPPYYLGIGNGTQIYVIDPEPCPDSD

T2 sequence (P16410 37-161 limits assumed): as above
T1 sequence (chain, as listed by the source): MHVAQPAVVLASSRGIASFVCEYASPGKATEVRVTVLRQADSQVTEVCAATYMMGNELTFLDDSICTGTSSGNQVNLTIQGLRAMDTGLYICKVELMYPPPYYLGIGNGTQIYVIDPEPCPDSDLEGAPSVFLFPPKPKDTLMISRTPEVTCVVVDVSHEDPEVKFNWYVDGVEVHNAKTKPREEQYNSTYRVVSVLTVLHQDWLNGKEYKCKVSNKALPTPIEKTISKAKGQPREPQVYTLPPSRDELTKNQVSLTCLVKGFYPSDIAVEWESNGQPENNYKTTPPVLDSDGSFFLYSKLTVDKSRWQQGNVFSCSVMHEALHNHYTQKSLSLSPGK

Row | Binder | Ka [1] | Kd [1] | koff [1] | kon [1] | Ka [2] | Kd [2] | koff [2] | kon [2] | Ka [3] | Kd [3] | koff [3] | kon [3] | Ka [4] | Kd [4] | koff [4] | kon [4] | IC50 [5] | IC50 [6] | other results
1 | B1 | 4.4e+09 M⁻¹ | 0.228 nM | 0.000207 s⁻¹ | 910000 M⁻¹ s⁻¹ | 4.4e+09 M⁻¹ | 0.227 nM | 0.000165 s⁻¹ | 730000 M⁻¹ s⁻¹ | 5.5e+09 M⁻¹ | 0.182 nM | 0.000172 s⁻¹ | 950000 M⁻¹ s⁻¹ | 1.07e+10 M⁻¹ | 0.093 nM | 9.6e-05 s⁻¹ | 1.04e+06 M⁻¹ s⁻¹ | 0.63 nM | 0.45 nM | selectivity ratio CTLA4/B7.2 [7]: > 500 :1; selectivity ratio CTLA4/CD28 [8]: > 500 :1; selectivity ratio CTLA4/CD44 [9]: > 500 :1; selectivity ratio CTLA4/CD28 [10]: > 500 :1
2 | B2 | 9e+08 M⁻¹ | 1.17 nM | 0.0013 s⁻¹ | 1.11e+06 M⁻¹ s⁻¹ |  |  |  |  | 9e+08 M⁻¹ | 1.12 nM | 0.00131 s⁻¹ | 1.17e+06 M⁻¹ s⁻¹ | 1.3e+09 M⁻¹ | 0.772 nM | 0.000959 s⁻¹ | 1.24e+06 M⁻¹ s⁻¹ |  |  | 
3 | B3 |  |  |  |  | 1.4e+09 M⁻¹ | 0.721 nM | 0.000505 s⁻¹ | 700000 M⁻¹ s⁻¹ | 2.2e+09 M⁻¹ | 0.455 nM | 0.00043 s⁻¹ | 940000 M⁻¹ s⁻¹ | 3.9e+09 M⁻¹ | 0.254 nM | 0.000253 s⁻¹ | 1e+06 M⁻¹ s⁻¹ | 3.39 nM | 1.5 nM | 

Source: US6682736
